Target: hMutSα (hMSH2-hMSH6) WT recombinant (Homo sapiens, UniProt P43246;P52701 1-934;1-1360)
Experiment: EMSA, supershift

Chain of hMutSα (hMSH2-hMSH6) WT recombinant (P43246 whole entry, chain 1 of 2): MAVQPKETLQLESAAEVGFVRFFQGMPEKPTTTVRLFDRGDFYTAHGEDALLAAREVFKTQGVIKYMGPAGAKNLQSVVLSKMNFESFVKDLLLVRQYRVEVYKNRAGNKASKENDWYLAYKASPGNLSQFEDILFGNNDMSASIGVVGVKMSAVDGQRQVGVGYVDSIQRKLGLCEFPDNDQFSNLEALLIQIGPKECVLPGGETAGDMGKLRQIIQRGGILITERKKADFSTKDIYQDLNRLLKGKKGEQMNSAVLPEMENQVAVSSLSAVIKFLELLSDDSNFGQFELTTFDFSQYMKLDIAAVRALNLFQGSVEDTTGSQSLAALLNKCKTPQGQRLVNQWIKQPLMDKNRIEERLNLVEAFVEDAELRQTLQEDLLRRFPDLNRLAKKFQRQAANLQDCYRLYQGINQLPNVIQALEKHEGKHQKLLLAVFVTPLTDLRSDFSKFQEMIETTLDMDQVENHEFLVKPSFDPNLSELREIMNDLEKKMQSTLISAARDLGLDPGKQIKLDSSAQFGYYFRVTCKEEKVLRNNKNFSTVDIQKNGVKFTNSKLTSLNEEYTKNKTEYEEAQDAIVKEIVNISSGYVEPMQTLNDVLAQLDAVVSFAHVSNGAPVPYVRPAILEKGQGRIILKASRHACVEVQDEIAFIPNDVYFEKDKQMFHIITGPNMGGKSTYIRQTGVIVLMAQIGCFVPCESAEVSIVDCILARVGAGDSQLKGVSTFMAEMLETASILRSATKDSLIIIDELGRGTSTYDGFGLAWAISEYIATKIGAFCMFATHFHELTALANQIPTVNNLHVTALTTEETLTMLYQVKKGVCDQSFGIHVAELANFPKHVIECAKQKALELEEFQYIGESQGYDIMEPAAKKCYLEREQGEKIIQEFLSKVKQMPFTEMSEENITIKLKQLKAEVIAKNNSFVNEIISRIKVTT
Chain of hMutSα (hMSH2-hMSH6) WT recombinant (P52701 whole entry, chain 2 of 2): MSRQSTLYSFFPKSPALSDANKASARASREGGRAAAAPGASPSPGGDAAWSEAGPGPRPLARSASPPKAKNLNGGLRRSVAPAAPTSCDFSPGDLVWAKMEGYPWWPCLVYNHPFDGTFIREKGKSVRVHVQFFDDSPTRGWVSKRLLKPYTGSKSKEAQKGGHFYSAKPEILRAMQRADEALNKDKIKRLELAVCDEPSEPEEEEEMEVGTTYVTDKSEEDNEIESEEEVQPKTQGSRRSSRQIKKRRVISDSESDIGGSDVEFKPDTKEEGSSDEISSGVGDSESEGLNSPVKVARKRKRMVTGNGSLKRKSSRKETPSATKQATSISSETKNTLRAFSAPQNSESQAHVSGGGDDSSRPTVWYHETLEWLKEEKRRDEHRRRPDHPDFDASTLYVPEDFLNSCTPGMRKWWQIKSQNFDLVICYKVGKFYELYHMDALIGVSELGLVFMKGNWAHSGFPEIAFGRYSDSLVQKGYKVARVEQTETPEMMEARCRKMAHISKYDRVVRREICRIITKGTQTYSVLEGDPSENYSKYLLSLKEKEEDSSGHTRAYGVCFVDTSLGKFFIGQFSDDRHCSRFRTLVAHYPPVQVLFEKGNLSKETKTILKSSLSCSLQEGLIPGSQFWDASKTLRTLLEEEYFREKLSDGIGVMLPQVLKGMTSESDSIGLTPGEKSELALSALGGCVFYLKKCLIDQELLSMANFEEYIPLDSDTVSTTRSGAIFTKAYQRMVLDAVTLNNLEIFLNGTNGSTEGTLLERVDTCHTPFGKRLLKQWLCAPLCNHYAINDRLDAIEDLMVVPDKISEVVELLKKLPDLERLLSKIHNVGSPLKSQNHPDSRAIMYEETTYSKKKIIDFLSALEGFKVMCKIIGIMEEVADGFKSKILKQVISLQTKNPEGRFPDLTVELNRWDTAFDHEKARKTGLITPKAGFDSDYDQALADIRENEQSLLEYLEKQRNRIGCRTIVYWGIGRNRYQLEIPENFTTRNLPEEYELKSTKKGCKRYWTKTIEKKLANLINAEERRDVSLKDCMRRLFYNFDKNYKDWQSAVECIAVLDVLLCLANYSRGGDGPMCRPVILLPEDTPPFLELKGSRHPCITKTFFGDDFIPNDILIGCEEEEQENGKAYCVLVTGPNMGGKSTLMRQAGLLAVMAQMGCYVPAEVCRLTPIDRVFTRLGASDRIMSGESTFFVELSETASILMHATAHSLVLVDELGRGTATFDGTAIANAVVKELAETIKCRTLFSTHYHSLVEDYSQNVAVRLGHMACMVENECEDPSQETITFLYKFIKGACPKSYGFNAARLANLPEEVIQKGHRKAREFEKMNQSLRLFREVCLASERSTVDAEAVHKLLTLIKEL

B1: G:T 69mer (dsDNA)
DNA 1: AATTCACGGAATATAAGCTGGTGGTGGTGGGCGCCGGCGGTTGGGCAAGAGTGCGCTGACCATCCAGG
DNA 2: CCTGGATGGTCAGCGCACTCTTGCCCAACCGTCGGCGCCCACCACCACCAGCTTATATTCCGTGAATT
binding result: binds
